Measurements as given in PMC9561264.
Blank lines part the entries; values can stand above or below the substance they belong to.

Assays:
[1] = biological target: hOGG1 (human oxoguanine glycosylase 1), wildtype (human) (UniProt O15527); test: fluorescence polarisation; reducing conditions (5 mM DTT); 5 nM Ni-NTA AF488 labelled his6-hOGG1, unlabelled protein titrated (Myc 1.22 nM-2 uM, LSD1 1.38 nM-60 uM, hOGG1 0.24 nM-8 uM); 20 mM Tris-HCl pH 7.6, 200 mM NaCl; 25 C; single Hill fit
[2] = biological target: hOGG1 (human oxoguanine glycosylase 1), wildtype (human) (UniProt O15527); test: fluorescence polarisation; oxidising conditions (5 uM H2O2); 5 nM Ni-NTA AF488 labelled his6-hOGG1, unlabelled protein titrated (Myc 1.22 nM-2 uM, LSD1 1.38 nM-60 uM, hOGG1 0.24 nM-8 uM); 20 mM Tris-HCl pH 7.6, 200 mM NaCl; 25 C; single Hill fit
[3] = biological target: hOGG1 (human oxoguanine glycosylase 1), wildtype (human) (UniProt O15527); test: FP; reducing; conditions: domain or fragment
[4] = biological target: hOGG1 (human oxoguanine glycosylase 1), wildtype (human) (UniProt O15527); test: FP; oxidising; conditions: domain or fragment
hOGG1 wild type (human) = hOGG1 wild type (human) (UniProt O15527); test: AFM; conditions: 150 nM hOGG1, 8-oxoguanine at ~50% (49.8%) of length, FP at 25°C with 5 nM labelled DNA, EMSA room temp 30 min, 15% native PAGE 0.5x TBE 4°C, interaction buffer 20 mM Tris-HCl pH 7.6, 200 mM NaCl (Fig. S12) …
hOGG1 wild type (human), sequence (O15527 whole entry): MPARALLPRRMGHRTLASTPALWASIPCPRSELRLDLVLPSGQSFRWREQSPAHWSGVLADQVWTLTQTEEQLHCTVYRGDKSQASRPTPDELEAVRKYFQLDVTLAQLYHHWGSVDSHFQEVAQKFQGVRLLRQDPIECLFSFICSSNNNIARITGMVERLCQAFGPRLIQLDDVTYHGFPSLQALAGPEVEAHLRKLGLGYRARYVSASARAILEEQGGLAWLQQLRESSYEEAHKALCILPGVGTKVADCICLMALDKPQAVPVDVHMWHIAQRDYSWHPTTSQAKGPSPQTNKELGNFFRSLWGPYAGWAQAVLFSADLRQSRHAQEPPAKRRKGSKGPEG

hOGG1 (human oxoguanine glycosylase 1), wildtype (human), sequence (O15527 whole entry, the tested form may be a part): as the sequence (O15527 whole entry) above
isolated N-terminal domain of Myc, sequence (P01106 16-158): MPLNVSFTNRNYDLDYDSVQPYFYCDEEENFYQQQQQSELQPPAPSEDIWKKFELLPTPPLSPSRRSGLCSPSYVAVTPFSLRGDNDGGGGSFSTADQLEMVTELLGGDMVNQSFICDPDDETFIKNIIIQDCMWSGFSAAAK
GST tagged full length c-Myc, sequence (P01106 whole entry): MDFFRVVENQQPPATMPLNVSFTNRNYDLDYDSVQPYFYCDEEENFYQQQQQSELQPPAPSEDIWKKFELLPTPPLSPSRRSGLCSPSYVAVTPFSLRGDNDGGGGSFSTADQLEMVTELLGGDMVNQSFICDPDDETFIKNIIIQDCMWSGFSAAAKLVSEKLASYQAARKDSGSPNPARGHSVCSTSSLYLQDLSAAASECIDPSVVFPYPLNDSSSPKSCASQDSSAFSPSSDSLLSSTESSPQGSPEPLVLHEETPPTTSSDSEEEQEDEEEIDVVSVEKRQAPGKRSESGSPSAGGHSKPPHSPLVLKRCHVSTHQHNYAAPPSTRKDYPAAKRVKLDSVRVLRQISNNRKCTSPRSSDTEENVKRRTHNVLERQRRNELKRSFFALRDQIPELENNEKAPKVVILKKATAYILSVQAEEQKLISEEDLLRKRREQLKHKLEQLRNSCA

- Kd [1]: 1060 nM
- Kd [2]: 662 nM
Substance: GST tagged full length c-Myc (from UniProt P01106 1-454) (natural protein; Ni-NTA AlexaFluor 488 dye on the his6 tag (labelled copy in fluorescence polarisation); other documents disagree on this pair)

- Kd [3]: 1070 nM
- Kd [4]: 705 nM
Substance: isolated N-terminal domain of Myc

Substance: oxoG 505 bp AFM substrate
- binding signal (counts/DNA at oxoG) (hOGG1 wild type (human); oxidising, specificity 368 ± 74): 0.1
- binding signal (counts/DNA at oxoG) (hOGG1 wild type (human); reducing, specificity 543 ± 37): 0.18
